Assay results: US7657380

Columns and labels:
[1] = target: GST-fused human V158 FcγRIIIa (extracellular region) (human) (UniProt P08637); test: SPR, GST-FcγRIIIa V158 on chip
[2] = target: GST-fused human V158 FcγRIIIa (extracellular region) (human) (UniProt P08637); test: AlphaScreen competition vs biotin-WT AC10

Sequence of GST-fused human V158 FcγRIIIa (extracellular region) (human) (P08637 17-208 F176V): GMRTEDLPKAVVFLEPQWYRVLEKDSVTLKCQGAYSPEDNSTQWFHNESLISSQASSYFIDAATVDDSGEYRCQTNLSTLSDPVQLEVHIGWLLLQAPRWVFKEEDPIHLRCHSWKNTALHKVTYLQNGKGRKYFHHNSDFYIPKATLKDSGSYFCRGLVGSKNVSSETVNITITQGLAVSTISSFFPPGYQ

Kd [1]: 0.0186 µM
IC50 [2]: 0.0872 µM
Substance: AC10 WT (H0/L0) full length antibody
